Molecular target: SKIV2L (hSKI complex subunit);TTC37 (hSKI complex subunit);WDR61 (hSKI complex subunit) (human;human;human, UniProt Q15477;Q6PGP7;Q9GZS3 1-1246;1-1564;1-305, ||)
Assay: EMSA; 2 mM Mg2+; 25 mM Hepes-KOH pH 7.6, 2 mM Mg acetate, 50 mM NaCl, 1 mM DTT, 0.1 mg/ml BSA, 1 nM substrate, 37 C 30 min; 0.7% agarose gel at 4 C

Question: For GGTTAGGGTTAGGGTTAG (ssDNA) [TEL18], which Kd is on record?
Answer: Its Kd is 12 nM.

Question: Which Kd does the source give for AGCGTATCCGTTCAGTTG (ssDNA) [Non-TEL18] here?
Answer: The Kd was 30 nM.

Question: Does CCCCACCACCAUCACUUAAAAAAAAAA (ssRNA) [ss poly(A)] bind?
Answer: Result: binds

Question: Does CCCCACCACCATCACTTAAAAAAAAAA (ssDNA) [ss poly(A) DNA] bind?
Answer: Result: binds

B1: dsRNA (ss poly(A) + Css27) (dsRNA)
RNA 1: CCCCACCACCAUCACUUAAAAAAAAAA
RNA 2: UUUUUUUUUUAAGUGAUGGUGGUGGGG
Question: Does B1 bind?
Answer: Result: no binding

Source: publication PMC11530851
